Assay results published in publication PMC6919569.

Columns and labels:
[1] = molecular target: T1, NF-kB p65 (RelA), recombinant (Homo sapiens, UniProt Q04206 1-551); test: competition EMSA
[2] = molecular target: T1, NF-kB p65 (RelA), recombinant; test: EMSA, supershift

T1 sequence (Q04206 whole entry): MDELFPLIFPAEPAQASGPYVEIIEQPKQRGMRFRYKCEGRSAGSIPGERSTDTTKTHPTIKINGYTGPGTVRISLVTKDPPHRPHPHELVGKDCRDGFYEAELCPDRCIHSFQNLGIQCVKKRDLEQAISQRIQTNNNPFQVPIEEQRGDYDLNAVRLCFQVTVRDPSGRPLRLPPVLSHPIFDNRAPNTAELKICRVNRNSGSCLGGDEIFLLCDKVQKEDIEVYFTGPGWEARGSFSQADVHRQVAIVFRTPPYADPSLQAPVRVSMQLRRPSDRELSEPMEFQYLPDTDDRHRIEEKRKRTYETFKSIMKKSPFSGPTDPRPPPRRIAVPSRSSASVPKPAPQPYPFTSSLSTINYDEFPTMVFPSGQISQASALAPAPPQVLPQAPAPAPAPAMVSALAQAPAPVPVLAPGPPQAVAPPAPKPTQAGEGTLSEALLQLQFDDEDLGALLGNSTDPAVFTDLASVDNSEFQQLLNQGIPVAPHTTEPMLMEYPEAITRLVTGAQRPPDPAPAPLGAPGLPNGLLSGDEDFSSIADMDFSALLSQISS

Row | Binder | binding result [1] | binding result [2]
1 | Mutant 2 (… to CCCTTAAGGG) (dsDNA) DNA 1: CTGTGCTCCCTTAAGGGTTAGCTCC DNA 2: GGAGCTAACCCTTAAGGGAGCACAG | no binding | –
2 | Mutant 1 (NF-kB site deleted) (dsDNA) DNA 1: CTGTGCTTTAGCTCC DNA 2: GGAGCTAAAGCACAG | no binding | –
3 | PLCB2 -1652/-1628 WT NF-kB probe (dsDNA) DNA 1: CTGTGCTGGGAATTCCCTTAGCTCC DNA 2: GGAGCTAAGGGAATTCCCAGCACAG | – | binds
